The assay addresses actin from chicken pectoralis muscle (F-actin, TRITC-phalloidin labelled) (chicken, UniProt P68139 1-377). The assay is described as follows: method of Cremo and Geeves.

Where “and” joins values, the source holds several entries; their conditions need not be identical. Identical values can stand only once.

The source of these data is paper PMC4586593 (The Journal of General Physiology, 2015).

B1: smooth muscle myosin S1 head (domain or fragment)
chain 1: SQKPLSDDEKFLFVDKNFVNNPLAQADWSAKKLVWVPSEKHGFEAASIKEEKGDEVTVELQENGKKVTLSKDDIQKMNPPKFSKVEDMAELTCLNEASVLHNLRERYFSGLIYTYSGLFCVVINPYKQLPIYSEKIIDMYKGKKRHEMPPHIYAIADTAYRSMLQDREDQSILCTGESGAGKTENTKKVIQYLAVVASSHKGKKDTSITQGPSFSYGELEKQLLQANPILEAFGNAKTVKNDNSSRFGKFIRINFDVTGYIVGANIETYLLEKSRAIRQAKDERTFHIFYYLIAGASEQMRNDLLLEGFNNYTFLSNGHVPIPAQQDDEMFQETLEAMTIMGFTEEEQTSILRVVSSVLQLGNIVFKKERNTDQASMPDNTAAQKVCHLMGINVTDFTRSILTPRIKVGRDVVQKAQTKEQADFAIEALAKAKFERLFRWILTRVNKALDKTKRQGASFLGILDIAGFEIFEINSFEQLCINYTNEKLQQLFNHTMFILEQEEYQREGIEWNFIDFGLDLQPCIELIERPTNPPGVLALLDEECWFPKATDTSFVEKLIQEQGNHAKFQKSKQLKDKTEFCILHYAGKVTYNASAWLTKNMDPLNDNVTSLLNQSSDKFVADLWKDVDRIVGLDQMAKMTESSLPSASKTKKGMFRTVGQLYKEQLTKLMTTLRNTNPNFVRCIIPNHEKRAGKLDAHLVLEQLRCNGVLEGIRICRQGFPNRIVFQEFRQRYEILAANAIPKGFMDGKQACILMIKALELDPNLYRIGQSKIFFRTGVLAHLEEERDLKITDVIIAFQAQCRGYLARKAFAKRQQQLTAMKVIQRNCAAYLKLRNWQWWRLFTKVKP
chain 2: CDFSEEQTAEFKEAFQLFDRTGDGKILYSQCGDVMRALGQNPTNAEVMKVLGNPKSDEMNLKTLKFEQFLPMMQTIAKNKDQGCFEDYVEGLRVFDKEGNGTVMGAEIRHVLVTLGEKMTEEEVEQLVAGHEDSNGCINYEELVRMVLSG
chain 3: SSKRAKAKTTKKRPQRATSNVFAMFDQSQIQEFKEAFNMIDQNRDGFIDKEDLHDMLASMGKNPTDEYLEGMMSEAPGPINFTMFLTMFGEKLNGTDPEDVIRNAFACFDEEASGFIHEDHLRELLTTMGDRFTDEEVDEMYREAPIDKKGNFNYVEFTRILKHGAKDKDD
As to B1, the dissociation constant Kd (as a rule, the free concentration of one partner at which half of the binding sites on the other are occupied at equilibrium, for simple one-to-one binding) is 15 nM and 25 nM.
